The results in this text go back to patent US10253323B2, “Chloroplast transit peptides” (priority 2015, dated 2019).

In experiment [1] the test system is soybean looper (SBL). As to the kind of experiment: Insect bioassay of Cry2Aa Arabidopsis events, soybean looper. In kind it is in vivo. The procedure:
(§1) The effectiveness of the TraP11 chimeric chloroplast transit peptides on Cry2Aa protein expression in Arabidopsis thaliana was assessed. Transgenic Arabidopsis plants which contained TraP11 chimeric chloroplast transit peptides fused to the Cry2Aa protein were assayed for insect tolerance to soybean looper (SBL) and tobacco budworm (TBW).
(§2) A small aliquot of T2 seed (approx. 100-200 seeds) for each event were suspended in 40 mls of 0.1% agarose solution and cold stratified at 4° C. for 24 hrs. The stratified seeds were then sown by pipetting 10 ml of seed onto the surface of four flats in a propagation flat. The flats were filled with Sunshine #5 soil Media™ (Sun Gro; Bellevue, Wash.) and lightly covered with fine vermiculite. The trays were saturated in Hoagland's fertilizer prior to sowing and as needed afterward. After sowing, humidity domes were used to cover the trays and they were then placed into a Conviron™ growth chamber set at 24° C. with a 16 hr photo period. Incandescent and fluorescent lights provided a light level of 200 PAR. After 5 days the seeds germinated and the domes were removed. The first herbicide selection of transformants was on day 6 and the second on day 10. Liberty™ herbicide (a.i. glufosinate-ammonium) was applied using a DeVilbiss atomizer hand sprayer at a rate of 200 g ai/ha to remove nulls. Roughly 25% of the plants were nulls as expected. A row of wild type checks were also included in the selection and they had 100% mortality after two herbicide applications. At 14 days the plants were ready for transplanting. […] The flats were presoaked with Hoagland's fertilizer prior to transplant and afterward as needed. The transplants were propagated in a non-air conditioned green house set at 25° C. with 14 hours of supplemental light. Silique development was inhibited by trimming with scissors and thus created more plant tissue for testing. Plants were ready for DNA sampling at 16-18 days and ready for bio-assay at about 23 days. The putative transgenic plants were screened using molecular confirmation assays and identified events were advanced for protein analysis and bioassay results.
(§3) Both sets of T1 Arabidopsis events were tested in insect bioassay experiments. […] There was a correlation between protein expression and leaf protection against both SBL and TBW for Arabidopsis events expressing Cry2Aa without a TraP (r^2=0.49 [SBL], 0.23 [TBW]), and for Arabidopsis events expressing Cry2Aa with TraP11 (r^2=0.75 [SBL], 0.17 [TBW]). Resultantly, an increase in protein expression caused significant protection against leaf damage (Pr<0.05).

Experiment [2] relates to tobacco budworm (TBW). Put plainly: Insect bioassay of Cry2Aa Arabidopsis events, tobacco budworm. Type of experiment: in vivo. As to the method:
as §1, §2, §3

Experiment [3] concerns chloroplasts of the tobacco leaf tissues. As to the kind of experiment: Tobacco transient assay, confocal microscopy of TraP-YFP/GFP. The following applies: TraP-YFP or TraP-GFP fusion, Agrobacterium-infiltrated tobacco leaf tissue. In kind it is cell-based, Nicotiana tabacum. An excerpt:
The above described chimeric chloroplast transit peptide sequences were initially tested via a transient in planta assay. Polynucleotide sequences which encode the TraP10 (SEQ ID NO:9), TraP11 (SEQ ID NO:10), TraP17 (SEQ ID NO:11), TraP18 (SEQ ID NO:12), TraP19 (SEQ ID NO:13), TraP26 (SEQ ID NO:14), TraP27 (SEQ ID NO:15), and TraP28 (SEQ ID NO:16), chimeric chloroplast transit peptide sequences were synthesized. A linker sequence (SEQ ID NO:17) was incorporated between the TraP sequence and the yfp coding sequence of TraP10 and TraP11. The resulting constructs contained two plant transcription units (PTU). The first PTU was comprised of the Arabidopsis thaliana Ubiquitin 10 promoter (AtUbi10 promoter; Callis, et al., (1990) J. Biol. Chem., 265: 12486-12493), TraP-yellow fluorescent protein fusion gene (TraP-YFP; US Patent App. 2007/0298412) or the TraP-green fluorescent protein fusion gene (TraP-GFP; Sheen et al., (1995) Plant J., 8(5): 777-84), and Agrobacterium tumefaciens ORF 23 3′ untranslated region (AtuORF23 3′UTR; U.S. Pat. No. 5,428,147). The second PTU was comprised of the Cassava Vein Mosaic Virus promoter (CsVMV promoter; Verdaguer et al., (1996) Plant Molecular Biology, 31: 1129-1139), phosphinothricin acetyl transferase (PAT; Wohlleben et al., (1988) Gene, 70: 25-37) or DSM-II (International Patent App. 2008070845), and Agrobacterium tumefaciens ORF 1 3′ untranslated region (AtuORF1 3′UTR; Huang et al., (1990) J. Bacteriol., 172: 1814-1822). Construct pDAB101979 contains the TraP10 chimeric chloroplast transit peptide (FIG. 3). Construct pDAB101980 contains the TraP11 chimeric chloroplast transit peptide (FIG. 4). Construct pDAB107634 contains the TraP17 chimeric chloroplast transit peptide (FIG. 5). Construct pDAB107635 contains the TraP18 chimeric chloroplast transit peptide (FIG. 6). Construct pDAB107636 contains the TraP19 chimeric chloroplast transit peptide (FIG. 7). Construct pDAB109847 contains the TraP26 chimeric chloroplast transit peptide (FIG. 8). Construct pDAB109848 contains the TraP27 chimeric chloroplast transit peptide (FIG. 9). Construct pDAB109849 contains the TraP28 chimeric chloroplast transit peptide (FIG. 10). […] The constructs were confirmed via restriction enzyme digestion and sequencing. Finally, the constructs were transformed into Agrobacterium tumefaciens and stored as glycerol stocks.
From an Agrobacterium glycerol stock, a loop full of frozen culture was inoculated into 2 ml of Yeast-extract Peptone Dextrose (100 μg/ml spectinomycin) in a 14 ml sterile tube. The inoculated media was incubated at 28° C. overnight with shaking at 200 rpm. The following day about 100 μl of the culture was used to inoculate 25 ml of YPD (100 μg/ml spectinomycin) in a 125 ml sterile tri-baffled flask, and incubated overnight at 28° C. overnight with shaking at 200 rpm. The following day the cultures were diluted to an OD600 of 0.5 in sterile ddH2O (pH 8.0). The diluted Agrobacterium strain was mixed with a second Agrobacterium strain containing the P19 helper protein at a ratio of 1:1. The culture were used for tobacco leaf infiltration via the Voinnet method. Voinnet O, Rivas S, Mestre P, and Baulcombe D, (2003) An enhanced transient expression system in plants based on suppression of gene silencing by the p19 protein of tomato bushy stunt virus. The Plant Journal, 33: 949-956. Infiltrated tobacco plants were placed in a Conviron™ set at 16 hr of light at 24° C. for at least three days until being assayed.
Agrobacterium-infiltrated tobacco leaves were severed from the plant, and placed into a petri-dish with water to prevent dehydration. The infiltrated tobacco leaves were observed under blue light excitation with long-pass filter glasses held in place using a Dark Reader Hand Lamp™ (Clare Chemical Research Co.; Dolores, Colo.) to identify undamaged areas of the leaf that were successfully expressing the YFP or GFP reporter proteins. […]

Experiment [4] concerns infiltrated tobacco cells. Put plainly: Western blot of infiltrated tobacco plants. Type of experiment: cell-based, Nicotiana tabacum. The following applies: infiltrated tobacco leaf tissue. As to the method: Samples of the infiltrated tobacco plants were assayed via Western blotting. Leaf punches were collected and subjected to bead-milling. About 100-200 mg of leaf material was mixed with 2 BBs (Daisy; Rogers, Ark.) and […] of PBST for 3 minutes in a Kleco™ bead mill. The samples were then spun down in a centrifuge at 14,000× g at 4° C. The supernatant was removed and either analyzed directly via Western blot or immunoprecipitated. The immunoprecipitations were performed using the Pierce Direct IP Kit™ (Thermo Scientific; Rockford, Ill.) following the manufacturer's protocol. Approximately, 50 μg of anti-YFP or anti-GFP was bound to the resin. The samples were incubated with the resin overnight at 4° C. Next, the samples were washed and eluted the following morning and prepped for analysis by combining equal volumes of 2×8M Urea sample buffer and then boiling the samples for 5 minutes. The boiled samples were run on a 4-12% SDS-Bis Tris gel in MOPS buffer for 40 minutes. The gel was then blotted using the Invitrogen iBlot™ (Life Technologies; Carlsbad, Calif.) following the manufacturer's protocol. The blotted membrane was blocked for 10 minutes using 5% non-fat dry milk in PBS-Tween® solution. The membrane was probed with the primary antibody (monoclonal anti-GFP or anti-YFP in rabbit) used at a 1:1000 dilution in the 5% non-fat dry milk in PBS-Tween® solution for 1 hour. Next, the membrane was rinsed three times for five minutes with PBS-Tween® to remove all unbound primary antibody. The membrane was probed with a secondary monoclonal anti-rabbit in goat antibody (Life Technologies) used at a 1:1000 dilution, for 60 minutes. The membrane was washed as previously described and developed by adding Themo BCIP/NBT™ substrate. The colormetric substrate was allowed to develop for 5-10 minutes and then the blots were rinsed with water before being dried.
Background: A western blot detects proteins with antibodies after separation by electrophoresis.

“Also recorded” adds a separate entry of the source.

B1: Cry2Aa without a TraP: Cry2Aa protein expressed in Arabidopsis from control plasmid without a chloroplast transit peptide sequence upstream of the cry2Aa gene (protein, UniProt P0A377 1-633, looked up)
Pesticidal crystal protein …: MNNVLNSGRTTICDAYNVVAHDPFSFEHKSLDTIQKEWMEWKRTDHSLYVAPVVGTVSSFLLKKVGSLIGKRILSELWGIIFPSGSTNLMQDILRETEQFLNQRLNTDTLARVNAELIGLQANIREFNQQVDNFLNPTQNPVPLSITSSVNTMQQLFLNRLPQFQIQGYQLLLLPLFAQAANMHLSFIRDVILNADEWGISAATLRTYRDYLRNYTRDYSNYCINTYQTAFRGLNTRLHDMLEFRTYMFLNVFEYVSIWSLFKYQSLMVSSGANLYASGSGPQQTQSFTAQNWPFLYSLFQVNSNYILSGISGTRLSITFPNIGGLPGSTTTHSLNSARVNYSGGVSSGLIGATNLNHNFNCSTVLPPLSTPFVRSWLDSGTDREGVATSTNWQTESFQTTLSLRCGAFSARGNSNYFPDYFIRNISGVPLVIRNEDLTRPLHYNQIRNIESPSGTPGGARAYLVSVHNRKNNIYAANENGTMIHLAPEDYTGFTISPIHATQVNNQTRTFISEKFGNQGDSLRFEQSNTTARYTLRGNGNSYNLYLRVSSIGNSTIRVTINGRVYTVSNVNTTTNNDGVNDNGARFSDINIGNIVASDNTNVTLDINVTLNSGTPFDLMNIMFVPTNLPPLY
As to B1, in experiment [1], the “protection of Arabidopsis plants from SBL damage” value was “protected from SBL damage”. Further, in experiment [1] (Arabidopsis events), the “minimum Cry2Aa protein expression for lower than 20% leaf damage” value is 2.0-2.5 ng/cm^2 and the “minimum Cry2Aa protein expression for lower than 30% leaf damage” value is listed as “about 1.5 ng/cm^2”. Also, the “protection of Arabidopsis plants from TBW damage” value in experiment [2] is on record as “protected from TBW damage”. In experiment [2] (Arabidopsis events), the “Cry2Aa protein concentration resulting in less than 30% leaf damage” value is on record as approximately 1.5 ng/cm^2 and the “Cry2Aa protein level at the 20% leaf damage cut-off point” value was 2.0-2.5 ng/cm^2.

B2: TraP11: chimeric chloroplast transit peptide, SEQ ID NO:2; N-terminus Glycine max, C-terminus Brassica napus; tested fused to YFP (pDAB101980) (protein)
chain: MAQVSRVHNLAQSTQIFGHSSNSNKLKSVNSVSLKTHQPRASSWGLKKSGTMLNGSVIRPVKVTASVS
modifications: TraP11
As to B2, the “translocation of YFP or GFP fluorescent protein into chloroplasts” value in experiment [3] was “accumulated within the chloroplasts; also recorded: successfully targeted YFP to tobacco chloroplasts”; in experiment [3] (listed as TraP11-YFP), “translocated into the chloroplasts”. The “TraP processed and cleaved from the YFP or GFP protein” value in experiment [4] is “processed and cleaved from the YFP or GFP protein”. Also, in experiment [1], the “protection of Arabidopsis plants from SBL damage” value was “provided insect tolerance”. In experiment [2], the “protection of Arabidopsis plants from TBW damage” value is “provided insect tolerance”.
